Data: article PMC5387315, “Functional and structural studies on the Neisseria gonorrhoeae GmhA, the first enzyme in the glycero‐manno‐heptose biosynthesis pathways, demonstrate a critical role in lipooligosaccharide synthesis and gonococcal viability” (MicrobiologyOpen, 2017)

Molecular target: the molecule itself
Assay: SEC; HiLoad 16/600 Superdex 75 pg, 20 mmol/L Tris-HCl pH 8.0, 500 mmol/L NaCl, 1 ml/min; size by Gel Filtration Standard (Bio-Rad)

B1: recombinant Neisseria gonorrhoeae sedoheptulose-7-phosphate isomerase GmhA, untagged (rGmhAGC) (enzyme, Neisseria gonorrhoeae FA1090, UniProt Q5F5E3 1-197, looked up)
chain: MTTLQERVAAHFAESIRAKQEAEKILVEPTVQAAELMLQCLMNDGKILACGNGGSAADAQHFAAEMTGRFEKERMELAAVALTTDTSALTAIGNDYGFDHVFSKQVRALGRAGDVLVGISTSGNSANVIEAVKAAHERDMHVIALTGRDGGKIAAMLKDTDVLLNVPHPRTARIQENHILLIHAMCDCIDSVLLEGM
notes: GmhA (sedoheptulose-7-phosphate isomerase) of N. gonorrhoeae FA1090, encoded by ngo1986; 197 amino acids, predicted mass 21.093 kDa; ngo1986 amplified without its stop codon and cloned into NcoI/HindIII of pRSF-NT; His tag removed by TEV protease; also called NGO1986; 6 × His-tag-free rGmhAGC; source: E. coli BL21(DE3), purified (IMAC, TEV cleavage, Ni-NTA); not shown: His6, N-terminal, cleaved
stoichiometry N: 4
